Assay results from the supplement of paper PMC9732359.
± gives the uncertainty stated by the source.

Test: protein stability index of a GFP-peptide fusion (yeast GPS) (PSI 1-4); higher = more stable; sorted into four equal gates, so the index is relative within each strain
Procedure, shortened: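 Peptides tiling yeast proteins in 17-residue segments were fused downstream of GFP, with Cherry expressed from the same plasmid. As a pooled library in yeast, mid-log cultures grown in leucine-free medium were sorted into four equal gates by GFP/Cherry fluorescence ratio. Gate plasmids were PCR-amplified and Illumina-sequenced, and barcodes linked reads to strains. Each peptide received a protein stability index equal to the sum of each gate's read frequency times its gate number.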

Row | Sequence | protein stability index (doa10∆) | protein stability index (pdr5∆) | protein stability index (san1∆) | protein stability index (ubr1∆)
1 | AMHYSSNIELAFSSVEH [COB] | 1.93 ± 0.058 | 1.9 ± 0.06 | 1.91 ± 0.087 | 2.09 ± 0.082
2 | IMRILKSNGLAPEIPED [RPS13] | 2.14 ± 0.09 | 3.09 ± 0.15 | 1.9 ± 0.22 | 2.91 ± 0.057
3 | PKVPEDIYKSHLDNSKS [RPN1] | 3.1 ± 0.12 | 2.98 ± 0.12 | 2.93 ± 0.1 | 3.24 ± 0.17
4 | FLQELLKKVQQQQQAAA [SWI1] | 2.06 ± 0.081 | 2.6 ± 0.088 | 2.47 ± 0.1 | 2.85 ± 0.1
5 | QSEDLSHAVEFFMSERS [YML103C/NUP188] | 3.29 ± 0.077 | 3.37 ± 0.089 | 3.25 ± 0.066 | 3.18 ± 0.059
6 | ANTSNNLFGATANANKP [YJL041W/NSP1] | 3.32 ± 0.066 | 3.27 ± 0.044 | 3.24 ± 0.043 | 3.22 ± 0.045
7 | TENEKFISYHDKYLCML [NUT1] | 2.91 ± 0.056 | 3 ± 0.055 | 3.23 ± 0.049 | 3.11 ± 0.053
8 | KYLSDIMELPGVYSDDE [SRP68] | 3.14 ± 0.25 | 3.08 ± 0.17 | 3.59 ± 0.17 | 3.36 ± 0.11
9 | RNARAARAAKIAPRPLD [RPL13B] | 2.86 ± 0.12 | 3.11 ± 0.09 | 3.14 ± 0.074 | 2.45 ± 0.056
10 | SQTTQLAGMDVEDALDK [FAS2] | 3.31 ± 0.094 | 3.47 ± 0.11 | 3.31 ± 0.083 | 3.62 ± 0.071
11 | RMVRSIMWQLLDGVSYL [SSN3] | 1.27 ± 0.078 | 1.26 ± 0.1 | 1.18 ± 0.12 | 1.34 ± 0.1
12 | KRDQYLKSASKETAPVI [RPL28] | 2.7 ± 0.12 | 2.69 ± 0.12 | 2.59 ± 0.065 | 2.43 ± 0.13
13 | QFCGIKERNSLKKLKAM [BRR2] | 3 ± 0.23 | 3.25 ± 0.12 | 2.25 ± 0.27 | 2.99 ± 0.11
14 | SIPMGGQSINDSLKKLL [ARP9] | 2.39 ± 0.06 | 2.46 ± 0.063 | 2.47 ± 0.08 | 2.61 ± 0.056
15 | EVRQETQPKAEATQDDD [NUT1] | 3.08 ± 0.13 | 3.18 ± 0.071 | 3.4 ± 0.065 | 3.16 ± 0.074
16 | RKPMGKRINFEKIKDIH [POP1] | 2.67 ± 0.051 | 3.12 ± 0.05 | 3.04 ± 0.065 | 2.87 ± 0.038
17 | LLALRERRMQVTAEDFK [RPT2] | 2.79 ± 0.13 | 2.8 ± 0.17 | 2.89 ± 0.11 | –
18 | DAFRVHICGICGLMTVI [RPB2] | 1.33 ± 0.084 | 1.43 ± 0.095 | 1.34 ± 0.16 | 1.43 ± 0.062
19 | INMADRSLGLQQVVCIF [POP6] | 1.39 ± 0.093 | 1.3 ± 0.11 | 1.4 ± 0.15 | 1.06 ± 0.11
20 | TEKMEEQLDLLSAILDP [MED11] | 3.14 ± 0.087 | 3 ± 0.1 | 3.13 ± 0.12 | 3.4 ± 0.1
21 | SPVYDVDPRIINSENDY [NUT1] | 2.92 ± 0.08 | 3.02 ± 0.074 | 2.39 ± 0.08 | 2.76 ± 0.059
22 | DIKDFADKVYTKENLEV [QCR2] | 3.34 ± 0.092 | 3.42 ± 0.11 | 2.69 ± 0.12 | 3.33 ± 0.053
23 | KFSLPFEQKGSQTTTND [YLR335W/NUP2] | 3.25 ± 0.1 | 3.08 ± 0.1 | 3.11 ± 0.099 | 3.09 ± 0.094
24 | VEIIDQKKVLIDGPKAG [RPL14A] | 2.8 ± 0.18 | 2.65 ± 0.09 | 2.91 ± 0.076 | 2.72 ± 0.065
25 | FQKAQGSYAGHRKHIAV [YCG1] | – | 2.11 ± 0.28 | 2.29 ± 0.22 | 2.46 ± 0.095
26 | ISDYQQLESIYFRILLP [SWI1] | 2.24 ± 0.045 | 2.33 ± 0.037 | 2.06 ± 0.049 | 2.34 ± 0.065
27 | SVVSQIEKGSTFGINLI [FAS1] | 3.09 ± 0.2 | 3.06 ± 0.11 | 3 ± 0.08 | 3.26 ± 0.076

Row | Sequence | protein stability index (doa10∆) | protein stability index (pdr5∆) | protein stability index (san1∆) | protein stability index (ubr1∆)
28 | ANSSITPAFGSNNTGNT [YJL041W/NSP1] | 2.65 ± 0.068 | 2.86 ± 0.049 | 2.72 ± 0.048 | 2.87 ± 0.031
29 | LAKAVAATIGANFIFSP [RPT4] | 2.09 ± 0.048 | 1.99 ± 0.042 | 1.72 ± 0.088 | 2.18 ± 0.069
30 | AFAGSKNDEVLGLLLPI [RPN1] | – | 3.2 ± 0.14 | 3.05 ± 0.17 | 3.19 ± 0.13
31 | VREFQRRLAFLGIKVAE [BRR2] | 2.06 ± 0.12 | 1.17 ± 0.14 | 1.04 ± 0.23 | 1.17 ± 0.087
32 | KGTNDEGTSISVHLIEC [YCS4] | 2.78 ± 0.094 | 2.73 ± 0.071 | 2.69 ± 0.11 | 3.2 ± 0.059
33 | LTVDNLSIAIVGKDTPF [PRE5] | 2.9 ± 0.052 | 2.66 ± 0.05 | 2.62 ± 0.05 | 3 ± 0.037
34 | GLLKRGDTVRILDTSQS [SNU114] | 3.08 ± 0.084 | 3.21 ± 0.1 | 3.15 ± 0.054 | 2.86 ± 0.1
35 | LNRIINHMLIDSLNQLE [RGR1] | 3.24 ± 0.15 | 2.96 ± 0.23 | 2.89 ± 0.18 | 2.68 ± 0.19
36 | EWDMLNVEEEQIVPYIE [BRR2] | 3.2 ± 0.17 | 3.41 ± 0.18 | 3.02 ± 0.24 | 3.45 ± 0.29
37 | LFKNYRFNFISKYFIID [YMR129W/POM152] | 1.97 ± 0.068 | 1.41 ± 0.074 | 1.32 ± 0.1 | 1.42 ± 0.061
38 | QDREITNWARTTFRNEY [MED8] | 2.49 ± 0.09 | 2.07 ± 0.083 | 2.47 ± 0.092 | 2.51 ± 0.096
39 | DELVKLLLDNGFNMKKI [SRP68] | – | – | 2.98 ± 0.24 | 3.52 ± 0.13
40 | SVLLQQLLTPGSKISSN [YGL172W/NUP49] | 2.46 ± 0.093 | 2.83 ± 0.089 | 3.09 ± 0.099 | 2.56 ± 0.14
41 | PGVRVSGEDVIIGKTTP [RPB2] | 3.36 ± 0.13 | 3.41 ± 0.16 | 3.61 ± 0.078 | 3.45 ± 0.073
42 | ESAAVYNGRGARERKTA [SNF2] | 2.55 ± 0.067 | 2.3 ± 0.057 | 2.76 ± 0.06 | 2.78 ± 0.06
43 | VAESFTDEADSSMTEAS [SNF2] | 3.46 ± 0.12 | 3.28 ± 0.11 | 3.38 ± 0.053 | 3.14 ± 0.096
44 | YQELGSLQSSSQTQLEN [MED2] | 2.96 ± 0.11 | 3.3 ± 0.082 | 3.08 ± 0.08 | 3.17 ± 0.072
45 | KPFLKGLVNHRVGVKLK [SMX3] | 2.76 ± 0.042 | 2.21 ± 0.041 | 2.07 ± 0.052 | 1.78 ± 0.031
46 | DEKKDSDSSKPAFSFGT [YJL041W/NSP1] | 2.75 ± 0.076 | 2.49 ± 0.068 | 3.07 ± 0.067 | 2.97 ± 0.042
47 | LNQINGLNNDFLFQNIN [GRR1] | 1.6 ± 0.1 | 2.13 ± 0.088 | 2.01 ± 0.11 | 1.8 ± 0.086
48 | TNVYSKDLVIVSNLMGR [RPB3] | 3.04 ± 0.073 | 2.97 ± 0.059 | 2.96 ± 0.051 | 2.79 ± 0.04
49 | YVRKHDPLNSNIFSEAV [PRP28] | 2.9 ± 0.11 | 2.76 ± 0.089 | 2.9 ± 0.055 | 3.1 ± 0.12
50 | KSRIVKVVGPRGTLTKN [RPL9A] | 2.66 ± 0.074 | 2.92 ± 0.058 | 2.65 ± 0.052 | 2.71 ± 0.033
51 | YIEDFLLVIGGNQRKIL [YJR042W/NUP85] | 1.59 ± 0.051 | 1.86 ± 0.05 | 1.62 ± 0.078 | 1.71 ± 0.042
52 | KERLTKEAAAIAEGKSK [RPL8B] | 2.19 ± 0.05 | 2.33 ± 0.056 | 2.02 ± 0.073 | 2.38 ± 0.033
53 | KLDLFKYFTELSHYIRQ [MED1] | 1.52 ± 0.084 | 1.44 ± 0.14 | 1.24 ± 0.17 | 1.33 ± 0.079
